Measurements reported in publication PMC4528141, “Generating a Metal-responsive Transcriptional Regulator to Test What Confers Metal Sensing in Cells*”.

Target: T1, FrmR (Salmonella enterica serovar Typhimurium …, UniProt A0A719I766 1-91)
T1 sequence: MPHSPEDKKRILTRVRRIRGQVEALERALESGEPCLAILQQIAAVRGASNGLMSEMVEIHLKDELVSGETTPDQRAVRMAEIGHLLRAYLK
Assay: fluorescence anisotropy; apo, 5 mM EDTA; 10 nM DNA; 2 tetramers:DNA, equal affinity; 10 mM HEPES pH 7.0, 60 mM NaCl, 240 mM KCl, 25 C, anaerobic; 5 mM EDTA (apo) or ZnCl2 (5 uM in text, 20 uM in Table 2)
Conditions: protein: recombinant; tags: none stated (pET29a NdeI; reverse primer carries native stop); chain copies: 8; label: 5' HEX on strand 1; blunt

B1: frmRAPro (dsDNA)
DNA 1: TTCTGATAGTATACCCCCCTATAGTATATGGAG
DNA 2: CTCCATATACTATAGGGGGGTATACTATCAGAA
- Kd: 99.4 nM
